These are literature values, as cited in article PMC9965408.

Usually pKi stands for −log10 of the Ki, conventionally taken in molar units.

In the series the target is plasmin (Homo sapiens) (UniProt P00747).

pKi: −log10 of the molar value.

UniProt P00747, sequence (P00747 581-810): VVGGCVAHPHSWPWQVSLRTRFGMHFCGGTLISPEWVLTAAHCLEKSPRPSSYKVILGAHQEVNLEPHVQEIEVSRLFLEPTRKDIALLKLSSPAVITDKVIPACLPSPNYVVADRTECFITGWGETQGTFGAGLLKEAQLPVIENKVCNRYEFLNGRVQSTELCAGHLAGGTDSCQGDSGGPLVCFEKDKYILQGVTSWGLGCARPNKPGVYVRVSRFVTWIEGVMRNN

As to AaTI (from UniProt Q177W0), the negative logarithm of the Ki (pKi) is 5.15.
